The values that follow come from the supplement of paper PMC10567573.

To fix the notation:
B1: TRIM14 (parent)
chain: REQADSCREQLDIMNDLSNRVWSI
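Also: lentivirally expressed fusions sorted by FACS into six bins by GFP to DsRed ratio, PSI derived from sequencing read proportions per bin multiplied by bin number.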

The variants in the data set derive from B1. The data set is described as follows: protein stability index of a GFP-peptide fusion (GPS, HEK-293T) (PSI 1-6); higher = more stable. As to conditions: c terminus: a fixed tail appended.
Regarding REQADSCREQLDIMNDLSNRVDSI [W22D], the protein stability index is 4.56. Under REQADSCREQLDIMNDLSNRVCSI [W22C] stands 3.77; under REQADSCREQLDIMNDLSNRVISI [W22I], 2.79. Next, REQADSCREQLDIMNDLSNRVKSI [W22K]: 3.98. As to REQADSCREQLDIMNDLSNRVTSI [W22T], the protein stability index came to 4.13. Under REQADSCREQLDIMNDLSNRVMSI [W22M] stands 3.29. For REQADSCREQLDIMNDLSNRVFSI [W22F], the protein stability index was 2.82. As for REQADSCREQLDIMNDLSNRVESI [W22E], the protein stability index was 4.84.

Turning to REQADSCREQLDIMNDLSNRVHSI [W22H], the protein stability index was 3.79.

Regarding REQADSCREQLDIMNDLSNRVASI [W22A], the protein stability index turned out to be 3.85. Take REQADSCREQLDIMNDLSNRVYSI [W22Y]: the protein stability index amounted to 2.78.

Regarding REQADSCREQLDIMNDLSNRVQSI [W22Q], the protein stability index came out at 4.12. For the variant REQADSCREQLDIMNDLSNRVVSI [W22V], the protein stability index was found to be 3.14. Next, REQADSCREQLDIMNDLSNRVRSI [W22R]: 4.28; REQADSCREQLDIMNDLSNRVLSI [W22L]: 3. REQADSCREQLDIMNDLSNRVSSI [W22S]: the protein stability index is 4.21. As for REQADSCREQLDIMNDLSNRVNSI [W22N], the protein stability index was determined as 3.72. Next, REQADSCREQLDIMNDLSNRVPSI [W22P]: 4.32; REQADSCREQLDIMNDLSNRVGSI [W22G]: 4.34; REQADSCREQLDIMNDLSNHVWSI [R20H]: 2.73. Next, REQADSCREQLDIMNDLSNVVWSI [R20V]: 2.4. Take REQADSCREQLDIMNDLSNYVWSI [R20Y]: the protein stability index came to 2.26. Take REQADSCREQLDIMNDLSNNVWSI [R20N]: the protein stability index was determined as 2.91. As for REQADSCREQLDIMNDLSNKVWSI [R20K], the protein stability index amounted to 2.78. Take REQADSCREQLDIMNDLSNPVWSI [R20P]: the protein stability index is 2.48. Under REQADSCREQLDIMNDLSNMVWSI [R20M] stands 2.24; under REQADSCREQLDIMNDLSNQVWSI [R20Q], 1.79; under REQADSCREQLDIMNDLSNCVWSI [R20C], 1.99. Regarding REQADSCREQLDIMNDLSNSVWSI [R20S], the protein stability index was 2.41. Under REQADSCREQLDIMNDLSNIVWSI [R20I] stands 2; under REQADSCREQLDIMNDLSNLVWSI [R20L], 1.29; under REQADSCREQLDIMNDLSNWVWSI [R20W], 1.64. In the case of REQADSCREQLDIMNDLSNFVWSI [R20F], the protein stability index amounted to 2.12. Under REQADSCREQLDIMNDLSNDVWSI [R20D] stands 3.31; under REQADSCREQLDIMNDLSNEVWSI [R20E], 3.04; under REQADSCREQLDIMNDLSNTVWSI [R20T], 2.19. Regarding REQADSCREQLDIMNDLSNAVWSI [R20A], the protein stability index worked out at 2.8. Under REQADSCREQLDIMNDLSNGVWSI [R20G] stands 2.77. Turning to REQADSCREQLDIMNDLSNRVWSC [I24C], the protein stability index is 2.53. Next, REQADSCREQLDIMNDLSNRVWSA [I24A]: 2.89. REQADSCREQLDIMNDLSNRVWEI [S23E]: the protein stability index was found to be 2.65. With REQADSCREQLDIMNDLSNRVWDI [S23D], the protein stability index is 4.14. Next, REQADSCREQLDIMNDLSNRVWPI [S23P]: 3.48; REQADSCREQLDIMNDLSNRVWLI [S23L]: 2.81; REQADSCREQLDIMNDLSNRVWII [S23I]: 2.75. Next, REQADSCREQLDIMNDLSNRVWNI [S23N]: 2.71. For REQADSCREQLDIMNDLSNRVWHI [S23H], the protein stability index is 2.07. Under REQADSCREQLDIMNDLSNRVWQI [S23Q] stands 2.68; under REQADSCREQLDIMNDLSNRVWRI [S23R], 2.11; under REQADSCREQLDIMNDLSNRVWAI [S23A], 2.09. Under REQADSCREQLDIMNDLSNRVWTI [S23T] stands 1.84; under REQADSCREQLDIMNDLSNRVWVI [S23V], 3.3; under REQADSCREQLDIMNDLSNRVWWI [S23W], 3.05. On to REQADSCREQLDIMNDLSNRVWGI [S23G], for which the protein stability index was determined as 2.66. On to REQADSCREQLDIMNDLSNRVWFI [S23F], for which the protein stability index came out at 2.03. Under REQADSCREQLDIMNDLSNRVWMI [S23M] stands 2.22; under REQADSCREQLDIMNDLSNRVWYI [S23Y], 1.92; under REQADSCREQLDIMNDLSNRVWKI [S23K], 2.09. As to REQADSCREQLDIMNDLSNRVWCI [S23C], the protein stability index turned out to be 2.57. On to REQADSCREQLDIMNDLSTRVWSI [N19T], for which the protein stability index was determined as 2.04. Next, REQADSCREQLDIMNDLSWRVWSI [N19W]: 2.12; REQADSCREQLDIMNDLSQRVWSI [N19Q]: 2.94; REQADSCREQLDIMNDLSYRVWSI [N19Y]: 2.08.

Take REQADSCREQLDIMNDLSPRVWSI [N19P]: the protein stability index worked out at 2.95. Take REQADSCREQLDIMNDLSRRVWSI [N19R]: the protein stability index stood at 2.3. For the variant REQADSCREQLDIMNDLSKRVWSI [N19K], the protein stability index came to 2.1.

On to REQADSCREQLDIMNDLSERVWSI [N19E], for which the protein stability index came out at 2.98.

Take REQADSCREQLDIMNDLSIRVWSI [N19I]: the protein stability index was 1.98.

Turning to REQADSCREQLDIMNDLSMRVWSI [N19M], the protein stability index was determined as 2.53. Next, REQADSCREQLDIMNDLSSRVWSI [N19S]: 3.17; REQADSCREQLDIMNDLSFRVWSI [N19F]: 1.54; REQADSCREQLDIMNDLSGRVWSI [N19G]: 2.61.

On to REQADSCREQLDIMNDLSLRVWSI [N19L], for which the protein stability index was 2.08.

On to REQADSCREQLDIMNDLSHRVWSI [N19H], for which the protein stability index was 2.26.

Consider REQADSCREQLDIMNDLSVRVWSI [N19V], for which the protein stability index is 2.39. Next, REQADSCREQLDIMNDLSNRDWSI [V21D]: 3.92; REQADSCREQLDIMNDLSNRTWSI [V21T]: 2.76; REQADSCREQLDIMNDLSNRHWSI [V21H]: 2.69. For REQADSCREQLDIMNDLSNRMWSI [V21M], the protein stability index came to 2.01. As to REQADSCREQLDIMNDLSNRGWSI [V21G], the protein stability index was found to be 2.87.

As to REQADSCREQLDIMNDLSNREWSI [V21E], the protein stability index turned out to be 3.58. Next, REQADSCREQLDIMNDLSNRAWSI [V21A]: 2.96; REQADSCREQLDIMNDLSNRIWSI [V21I]: 3.01; REQADSCREQLDIMNDLSNRKWSI [V21K]: 2.69.

Regarding REQADSCREQLDIMNDLSNRCWSI [V21C], the protein stability index stood at 2.41.

Turning to REQADSCREQLDIMNDLSNRPWSI [V21P], the protein stability index worked out at 3.01.

Regarding REQADSCREQLDIMNDLSNRYWSI [V21Y], the protein stability index worked out at 3.19. Under REQADSCREQLDIMNDLSNRNWSI [V21N] stands 2.97; under REQADSCREQLDIMNDLSNRSWSI [V21S], 2.45. REQADSCREQLDIMNDLSNRFWSI [V21F]: the protein stability index is 3.06.

As for REQADSCREQLDIMNDLSNRRWSI [V21R], the protein stability index was found to be 2.18. Under REQADSCREQLDIMNDLSNRLWSI [V21L] stands 2.88; under REQADSCREQLDIMNDLSNRQWSI [V21Q], 3.06; under REQADSCREQLDIMNDLSNRWWSI [V21W], 2.01.
